Experimental data published in the RNAGym collection of RNA variant scans (doi:10.1073/pnas.2313332121).

B1: TPR t1 (parent)
chain: GACCAAUCUGCCCUCAGAGCUCGAGAACAUCUUCGGAUGCAGAGGAGGCAGGCUUCGGUGGCGCGAUAGCGCCAACGUCCUCAACCUCCAAUGCAUCCCACCACAUGAUGAUGCCUGAAGAGCCUUGGUUUUUUG

Variants of: B1
Assay: polymerase ribozyme fitness, log enrichment relative to wild type (log ratio); higher = more active; in vitro selection for triplet polymerase activity
In short: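 Mutant libraries of each subunit of a heterodimeric triplet polymerase ribozyme were built by PCR and transcribed. Each library went through one round of in vitro selection in triplicate: annealing with biotinylated primer, partner subunit and triplets, frozen incubation at −7 °C, gel excision of extended constructs, streptavidin-bead capture and RT-PCR. Input and output libraries were Illumina-sequenced; only genotypes with ≥10 input reads and ≥1 read per output were kept. Fitness is log2(genotype enrichment/wild-type enrichment), using inverse-variance-weighted replicate averages.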

In order of rising “polymerase ribozyme fitness (log ratio)” value:
1. G71C G110C U126C  -7.04
2. G71U A83U C99A A105C C123U  -7.02
3. G71A A84G C102A C115G  -6.59
4. C70G A105G G113U U129G  -6.51
5. C70G U109G  -6.4
6. G71C C82G U109A C115A A118U C123A  -6.35
7. C70G A95U C114A  -6.28
8. C70U C97A C102G U109G G117A  -6.26
9. G71U C94G G113C U126G  -6.21
10. C70U G110U U112G  -6.05
11. G71U C85G C88G C115A  -5.75
12. G71U A74U C104A G117A C124U  -5.66
13. C70G U78C U92C  -5.65
14. C70G C102A  -5.59
15. G71U C73G  -5.51
16. G71A C99U U106C  -5.44
17. C70G A105G  -5.16
18. C70G U78C G113C  -5.1
19. C70U G107A  -5.06
20. G71A G107A  -4.98
21. C70G U116A  -4.95
22. C70G A90C  -4.87
23. C70U G107U  -4.87
24. C70U C98A  -4.77
25. C70G G110U  -4.62
26. G71C C114G  -4.37
27. C70G A108G  -3.92
28. G71U A111U  -3.91
29. C70G C94G C123A  -3.58
30. C70G C82G C124A U131G  -3.38
31. C70A G117A  -3.29
32. C70U G117U  -3.24
33. C70A U106C  -2.99
34. C70G U112G  -2.86
35. G71C A121C C123U C124U  -2.8
36. C70G C97U  -2.56
37. G71A A111G G120U  -2.5
38. G71A C82G  -2.5
39. G71U C114G U132A  -2.34
40. G71A C115A  -2.31
41. G71U C102A  -2.25
42. G71C C85U C94U U132A  -2.18
43. G71U G77C C86U  -2.09
44. C70U A108G  -2.04
45. C70G U112A  -1.98
46. C70U C115U C123G  -1.96
47. G71A C115U  -1.95
48. C70U A84G  -1.86
49. C70A U78C  -1.85
50. C70U A74G  -1.83
51. C70U U125G G127A  -1.83
52. C70U G93U  -1.7
53. C70U G71C  -1.67
54. G71C A100U G120U  -1.67
55. C70U U78C C101A  -1.6
56. G71A C114A  -1.41
57. G71U C82A C88A  -1.39
58. C70U C82G U106C  -1.36
59. G71U A84G G120A U130G  -1.33
60. C70U C72G A75U  -1.29
61. C70U U130G  -1.24
62. C70G U78G A119G  -1.17
63. G71A G77U  -1.13
64. C70U U106G C124U  -1.06
65. G71C G113A A121G U133A  -1.06
66. C70U G71A  -1.05
67. G71A A84U  -1.02
68. G71A C88A  -0.898
69. G71A G127U  -0.848
70. C70U G93A  -0.708
71. G71A A75G C104U  -0.612
72. G71C G120U  -0.52
73. C70U A74U  -0.47
74. C70U C85A C94U U112C  -0.466
75. C70U U112G  -0.342
76. C70U C97U  -0.226
77. G71A C82U  -0.155
78. G71A C85U G120C  0.00346
79. C70G C123G U131C  0.0447
80. G71U C123U  0.812
81. G71U C123G  0.824
82. G71U A121C  1.43
83. G71U C123A  1.94
84. C70U U87C C123G  2.6
